Measurements published in publication PMC10524254.

Legend:
surface FACS = details: glycan lost
[1] = dual-color iSIM, Pearson correlation, TMD8; details: glycan lost; control: wild type IgM
[2] = IgM-TLR9 proximity ligation assay; details: glycan lost; control: wild type IgM
[3] = dSTORM, Hopkins index and H-function, TMD8; details: glycan lost; control: untreated / control cells
[4] = IgM-LAMP1 proximity ligation assay; details: glycan lost; control: DMSO
[5] = anti-IgM Fab-pHrodo internalization, flow cytometry; details: glycan lost; control: DMSO
[6] = CD79A-BioID2 proximity labelling, SILAC MS, TMD8; details: glycan lost; control: DMSO

B1: IgM: quadruple mutant (N46Q, N209Q, N272Q, N279Q) (protein)
parent chain: GSASAPTLFPLVSCENSPSDTSSVAVGCLAQDFLPDSITFSWKYKNNSDISSTRGFPSVLRGGKYAATSQVLLPSKDVMQGTDEHVVCKVQHPNGNKEKNVPLPVIAELPPKVSVFVPPRDGFFGNPRKSKLICQATGFSPRQIQVSWLREGKQVGSGVTTDQVQAEAKESGPTTYKVTSTLTIKESDWLGQSMFTCRVDHRGLTFQQNASSMCVPDQDTAIRVFAIPPSFASIFLTKSTKLTCLVTDLTTYDSVTISWTRQNGEAVKTHTNISESHPNATFSAVGEASICEDDWNSGERFTCTVTHTDLPSPLKQTISRPKGVALHRPDVYLLPPAREQLNLRESATITCLVTGFSPADVFVQWMQRGQPLSPEKYVTSAPMPEPQAPGRYFAHSILTVSEEEWNTGETYTCVVAHEALPNRVTERTVDKSTEGEVSADEEGFENLWATASTFIVLFLLSLFYSTTVTLFKVK
Surface FACS; control: wild type IgM
  localisation_or_trafficking: no change

B2: IgM: N209 mutant (protein)
parent chain: B1 parent chain
[1]
  other: plasma-membrane colocalisation: increases
[2]
  other: proximity (My-T-BCR formation): decreases

B3: IgM: N209Q (protein)
parent chain: B1 parent chain
Surface FACS; control: wild type IgM
  localisation_or_trafficking: no change

B4: IgM: STT3B knockout (protein)
parent chain: B1 parent chain
[3]
  other: surface clustering: decreases

B5: IgM: N46 mutant (protein)
parent chain: B1 parent chain
[1]
  other: plasma-membrane colocalisation: increases
[2]
  other: proximity (My-T-BCR formation): decreases

B6: IgM: NGI-1 (protein)
parent chain: B1 parent chain
[4]
  localisation_or_trafficking: decreases
[5]
  localisation_or_trafficking: decreases
[3]
  other: surface clustering: decreases

B7: CD79A: N112Q (protein)
parent chain: MPGGPGVLQALPATIFLLFLLSAVYLGPGCQALWMHKVPASLMVSLGEDAHFQCPHNSSNNANVTWWRVLHGNYTWPPEFLGPGEDPNGTLIIQNVNKSHGGIYVCRVQEGNESYQQSCGTYLRVRQPPPRPFLDMGEGTKNRIITAEGIILLFCAVVPGTLLLFRKRWQNEKLGLDAGDEYEDENLYEGLNLDDCSMYEDISRGLQGTYQDVGSLNIGDVQLEKP
Surface FACS; control: wild type CD79A
  localisation_or_trafficking: no change

B8: CD79A: NGI-1 (protein)
parent chain: B7 parent chain
[6]
  other: proximity: increases

B9: CD79B: N73Q (protein)
parent chain: MARLALSPVPSHWMVALLLLLSAEPVPAARSEDRYRNPKGSACSRIWQSPRFIARKRGFTVKMHCYMNSASGNVSWLWKQEMDENPQQLKLEKGRMEESQNESLATLTIQGIRFEDNGIYFCQQKCNNTSEVYQGCGTELRVMGFSTLAQLKQRNTLKDGIIMIQTLLIILFIIVPIFLLLDKDDSKAGMEEDHTYEGLDIDQTATYEDIVTLRTGEVKWSVGEHPGQE
Surface FACS; control: wild type CD79B
  localisation_or_trafficking: no change

B10: CD79B: N101Q (protein)
parent chain: B9 parent chain
Surface FACS; control: wild type CD79B
  localisation_or_trafficking: no change

B11: CD79B: triple mutant (N73Q, N101Q, N127Q) (protein)
parent chain: B9 parent chain
Surface FACS; control: wild type CD79B
  localisation_or_trafficking: no change
